Data on three substances can be found in patent US20100317837A1.

Assay [1] deals with Env BR029.2 on 293 cells (HIV-1 isolate BR029.2, clade F). Put plainly: cell-based or functional assay.
The target in assay [2] is Env BR025.9 on 293 cells (HIV-1 isolate BR025.9, clade C). Briefly: cell-based or functional assay.
For assay [3], the target named is Env UG975.10 on 293 cells (HIV-1 isolate UG975.10, clade G). Put plainly: cell-based or functional assay.
The target of assay [4] is Env TH022.4 on 293 cells (HIV-1 isolate TH022.4, clade EA). Briefly: cell-based or functional assay.
The target in assay [5] is Env UG037.8 on 293 cells (HIV-1 isolate UG037.8, clade A). Briefly: cell-based or functional assay.
For assay [6], the target named is Env US715.6 on 293 cells (HIV-1 isolate US715.6, clade B). Briefly: cell-based or functional assay.
For assay [7], the target named is Env NL4-3 on 293 cells (HIV-1 NL4-3, clade B). Put plainly: cell-based or functional assay.
Assay [8] deals with Env HT593.1 on 293 cells (HIV-1 isolate HT593.1, clade B). Briefly: cell-based or functional assay.
Assay [9] deals with Env 89.6 on 293 cells (HIV-1 isolate 89.6, clade B). Briefly: cell-based or functional assay.
The target in assay [10] is Env US005.11 on 293 cells (HIV-1 isolate US005.11, clade B). Put plainly: cell-based or functional assay.
Assay [11] has as its target Env RW020.5 on 293 cells (HIV-1 isolate RW020.5, clade A). Briefly: cell-based or functional assay.
In assay [12] the target is Env clone R2 on pseudotype virus (HIV-1 isolate R2, Clade B). Put plainly: cell-based or functional assay.
For assay [13], the target named is Env clone TH966 on pseudotype virus (HIV-1 isolate TH966). Put plainly: cell-based or functional assay.
Assay [14] concerns the target Env clone GX-E14 on pseudotype virus (HIV-1 isolate GX-E14, Clade E). Put plainly: cell-based or functional assay.
Assay [15] has as its target Env clone MN-TCLA on pseudotype virus (HIV-1 isolate MN-TCLA) (UniProt P05877). Briefly: cell-based or functional assay.
Chain of UniProt P05877 (P05877 32-856 limits assumed): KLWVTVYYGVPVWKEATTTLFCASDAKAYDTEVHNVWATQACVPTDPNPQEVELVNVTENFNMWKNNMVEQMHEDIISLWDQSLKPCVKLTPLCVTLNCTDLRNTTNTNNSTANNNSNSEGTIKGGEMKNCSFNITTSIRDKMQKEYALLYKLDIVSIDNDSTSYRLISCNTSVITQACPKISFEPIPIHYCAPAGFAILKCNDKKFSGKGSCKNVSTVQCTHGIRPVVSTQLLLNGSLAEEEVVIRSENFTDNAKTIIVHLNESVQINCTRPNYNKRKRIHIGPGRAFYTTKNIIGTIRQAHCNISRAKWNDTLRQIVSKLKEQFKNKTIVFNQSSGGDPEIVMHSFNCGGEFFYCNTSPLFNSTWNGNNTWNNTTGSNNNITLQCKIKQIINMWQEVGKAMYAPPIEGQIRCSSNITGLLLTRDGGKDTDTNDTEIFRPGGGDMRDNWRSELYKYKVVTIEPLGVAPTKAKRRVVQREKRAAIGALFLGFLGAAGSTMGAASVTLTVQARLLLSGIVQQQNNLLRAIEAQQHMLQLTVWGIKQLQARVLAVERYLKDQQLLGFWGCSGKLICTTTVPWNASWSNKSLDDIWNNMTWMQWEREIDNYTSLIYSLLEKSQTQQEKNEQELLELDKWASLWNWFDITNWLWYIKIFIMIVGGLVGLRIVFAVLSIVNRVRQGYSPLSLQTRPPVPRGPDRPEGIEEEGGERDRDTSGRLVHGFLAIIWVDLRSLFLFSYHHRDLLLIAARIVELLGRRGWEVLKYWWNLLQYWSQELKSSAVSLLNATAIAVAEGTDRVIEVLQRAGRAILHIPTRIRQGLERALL
Assay [16] has as its target Env clone GX-C44 on pseudotype virus (HIV-1 isolate GX-C44, Clade C). Briefly: cell-based or functional assay.
The target of assay [17] is Env clone VI1273 on pseudotype virus (HIV-1 isolate VI1273). Put plainly: cell-based or functional assay.
In assay [18] the target is Env clone Z2Z6 on pseudotype virus (HIV-1 isolate Z2Z6, Clade D). Briefly: cell-based or functional assay.
The target in assay [19] is Env clone VI1399 on pseudotype virus (HIV-1 isolate VI1399). Briefly: cell-based or functional assay.
Assay [20] addresses sCD4-gp120 89.6 complex (HIV-1 isolate 89.6) (UniProt P01730). Put plainly: ELISA, antigen coated on plate, soluble Fab titrated, Langmuir fit. (In an ELISA, binding on a coated surface is turned into a signal by an enzyme label.)
Assay [21] has as its target gp120 JR-FL (HIV-1 isolate JR-FL). Described as above.
The target of assay [22] is gp120 89.6 (HIV-1 isolate 89.6). Described as above.
Assay [23] deals with gp120 IIIB (HIV-1 isolate IIIB) (UniProt P04578). Briefly: ELISA, soluble Fab titrated on Env (direct or D7324 capture format not specified); IIIB* is gp120.
In assay [24] the target is Env clone V5 on pseudotype virus (HIV-1 isolate V5). Put plainly: cell-based or functional assay.
Assay [25] has as its target Env clone 92RW020.5 on pseudotype virus (HIV-1 isolate 92RW020.5, Clade A). Briefly: cell-based or functional assay.
Assay [26] has as its target Env clone P37 on pseudotype virus (HIV-1 isolate P37). Put plainly: cell-based or functional assay.
The target in assay [27] is Env clone VI14004 on pseudotype virus (HIV-1 isolate VI14004, Clade F). Put plainly: cell-based or functional assay.
Assay [28] deals with gp120 IIIB (HIV-1 isolate IIIB) (UniProt P04578). Briefly: ELISA, antigen coated on plate, soluble Fab titrated, Langmuir fit.
Assay [29] concerns the target gp140 89.6 (HIV-1 isolate 89.6). Briefly: ELISA, soluble Fab titrated on Env (direct or D7324 capture format not specified).

Where only a bound is given, the exact number is not on record here.

On to Fab X5, for which the % of fusion inhibition, cell-cell fusion assay, Fab at 50 µg/ml in assay [1] was determined as 36%; in [2], 71%; in assay [3], 19%; in [4], 43%; in assay [5] it was 34%; in assay [6], 28%. Besides, the % of fusion inhibition, cell-cell fusion assay, Fab at 50 µg/ml in [7] turned out to be 83%; in assay [8] it was 27%; in assay [9], 93%; in assay [10], 72%; in [11], 45%.

As usually defined, the Kd is the free concentration of one partner at which half of the binding sites on the other are occupied at equilibrium, for simple one-to-one binding. Low readings indicate tighter binding, high ones weaker binding. In the case of Fab m14, the % of fusion inhibition, cell-cell fusion assay, Fab at 50 µg/ml in assay [1] was 71%; in assay [2], 71%; in assay [3], 22%; in assay [4] it was 100%; in assay [5], 100%; in [6], 35%. Moreover, the % of fusion inhibition, cell-cell fusion assay, Fab at 50 µg/ml in assay [7] came out at 96%; in assay [8] it was 78%; in assay [9], 100%; in assay [10], 95%; in assay [11], 31%. Further, the Concentration of Fab at the 50% neutralization endpoint, pseudovirus assay in [12] is 2.24 µg/mL; in assay [13] it was > 100 µg/mL; in assay [14], 100 µg/mL; in assay [15] it was 2.24 µg/mL; in assay [16], 8.8 µg/mL; in assay [17] it was 3.1 µg/mL. In addition, the Concentration of Fab at the 50% neutralization endpoint, pseudovirus assay was 50 µg/mL in assay [18] and > 100 µg/mL in assay [19]. Further, the values for the Kd in assay [20], in [21] and in [22] were 7.3 nM, 0.9 nM and 5.4 nM, respectively.

In general, EC50 refers to the concentration at which the effect is half-maximal. A lower EC50 goes with higher potency in that assay. In the case of Fab m18, the values for the EC50 in [23] and in [29] were 0.48 nM and 1.17 nM, respectively. In addition, the % of fusion inhibition, cell-cell fusion assay, Fab at 50 µg/ml in [1] is 86%; in assay [2], 86%; in assay [3] it was 56%; in assay [4] it was 93%; in [5] it was 34%; in assay [6], 97%. For the same substance, the % of fusion inhibition, cell-cell fusion assay, Fab at 50 µg/ml turned out to be 92% in assay [7]; 39% in [8]; 100% in assay [9]; 93% in assay [10]; 25% in assay [11]. The Concentration of Fab at the 50% neutralization endpoint, pseudovirus assay in [12] was 1.6 µg/mL; in assay [13] it was > 100 µg/mL; in assay [14], > 100 µg/mL; in [15], < 1.6 µg/mL; in assay [24], < 2 µg/mL; in assay [25], 3 µg/mL. The Concentration of Fab at the 50% neutralization endpoint, pseudovirus assay is > 25 µg/mL in assay [16]; 100 µg/mL in assay [26]; 25 µg/mL in [17]; 25 µg/mL in assay [18]; < 2 µg/mL in [27]; > 100 µg/mL in [19]. For the same substance, the Kd in [28] stood at 0.08 nM; in assay [20], 0.9 nM; in assay [21], 0.9 nM; in assay [22], 1 nM.
